The Human Domainome abundance scans (Beltran et al. 2025)

B1: Far upstream element-binding protein 1, residues 184 to 257; numbered along this chain, Q96AE4 (parent)
chain: GNAVQEIMIPASKAGLVIGKGGETIKQLQERAGVKMVMIQDGPQNTGADKPLRITGDPYKVQQAKEMVLELIRD
B2: Peripheral plasma membrane protein CASK, residues 488 to 569; numbered along this chain, O14936 (parent)
chain: VRLVQFQKNTDEPMGITLKMNELNHCIVARIMHGGMIHRQGTLHVGDEIREINGISVANQTVEQLQKMLREMRGSITFKIVP

Variants of: B1
Experiment: abundance fitness (aPCA) (normalised: wild type 0, dead -1); higher = more abundant; growth selection in yeast, the domain comes from the species named
Conditions: Homo sapiens

Abundance fitness: each site, then its substitutions
M8: E -0.166, I -0.011, N -0.078, L -0.075, Y -0.133, R -0.074, C -0.339, Q -0.03, T -0.106, V -0.323, A -0.124, W -0.164, H -0.102, P -0.094, D -0.23, S -0.121, G -0.151
P10: A -0.468, C -0.598
I7: W -0.651, P -1.14, A -0.674, V -0.045, L -0.026, E -0.646, Q -0.559, Y -0.597, T -0.564, C -0.394, N -1.09, R -0.861, D -1.02, F -0.229, G -0.885
N2: W -0.028, Q 0.095, L 0.09, R 0.032, T 0.154, Y -0.124, A 0.043, P -0.028, I 0.168, E 0.176, K 0.155, D -0.224, F 0.043, M 0.201, S 0.128, H -0.311, V 0.121, C 0.052
E6: L -0.187, G -0.358, C -0.366, A -0.12, T -0.014, I -0.101, F -0.217, M -0.078, N -0.146, S -0.185, H -0.086, D -0.1, Q 0.024, P -0.809, R -0.145, V -0.028, Y -0.232, W -0.082
A3: F 0.165, S 0.196, M 0.256, G -0.059, N 0.057, T 0.235, Q 0.133, L 0.172, W 0.116, V 0.011, H -0.044, R 0.17, P 0.109, I 0.255, K 0.181, E 0.039, Y 0.158
G1: C -0.127, Q -0.26, I 0.193, M 0.173, A -0.075, L -0.042, Y -0.074, D -0.067, E -0.061, K -0.044, R -0.176, F -0.027, S -0.14, V 0.038, N -0.073, W -0.502, P -0.212
V4: D -0.063, L -0.065, Y -0.013, S -0.18, N 0.073, R -0.053, M 0.11, A -0.259, G -0.146, E 0.051, F 0.112, I 0.097, K 0.027, Q 0.009, P -0.56, H 0.031, W -0.105, C -0.069, T 0.029
Q5: L -0.029, D 0.021, T 0.013, A -0.007, G -0.036, R 0.013, P -0.726, C -0.006, N -0.083, F -0.063, Y -0.003, M 0.056, I 0.014, H -0.108, E 0.128, K 0.016, V 0.04
I9: H -0.905, Y -0.891, P -0.905, M -0.312, V 0.009, A -1, Q -0.768, N -0.785, T -0.749, L -0.087, S -0.913, F -0.737, W -0.964

Variants of: B2
Experiment: as above
Conditions: Homo sapiens

Abundance fitness, by site and new letter:
V81: G -0.106, M -0.05, N -0.118, E -0.104, S -0.044, W -0.102, Q -0.001, H -0.073, L 0.005, C -0.036, A -0.054, T -0.075, Y -0.035, P -0.658, F -0.02, I -0.016
K79: E -0.113, M -0.133, S 0.014, C -0.053, G -0.044, H -0.006, W -0.572, P -1.14, D -0.27, V -0.213, N -0.091, Y -0.415, F -0.457, T -0.06, Q -0.016, I -0.406, R -0.061, A 0.071, L -0.09
M72: Y -0.055, W -0.047
G74: D -0.131, L -0.842, S -0.381, M -0.806, P -0.524, Y -0.521, V -0.716, R -0.467, T -0.4, H -0.355, N -0.243, K -0.399, F -0.51, I -1.13, C -0.5
R73: M -0.077, P -0.357, W -0.117, D -0.002, V -0.038, Q -0.006, S 0.025, A -0.082, Y -0.157, L -0.113, I -0.04, K 0.007, C -0.011, T -0.003, E -0.02, F -0.124, G -0.022, H -0.044, N 0.038
T77: F -0.019, S -0.002, L -0.064, C -0.058, K -0.041, H -0.194, Q -0.04, N -0.096, V -0.103, R -0.088, D -0.061, A -0.028, G -0.248, W -0.014, M -0.309, I -0.026, E -0.034, Y -0.112
F78: L -0.007, D -1.22, S -0.839, W -0.484, P -0.998, A -0.473, Y -0.524, V -0.198, T -0.677, R -0.812, M 0.052, Q -1.22, H -0.95, I -0.045, G -0.886, N -0.922, K -0.964, C -0.233
P82: G -0.083, L -0.214, E -0.047, K -0.143, W -0.359, Y -0.45, D -0.039, I -0.237, Q 0.02, R -0.063, T -0.042, S -0.021, V -0.089, C -0.072, M -0.204, N -0.048, H -0.151, A -0.016
I76: V -0.01, H -0.544, D -0.818, E -1.04, T -0.269, N -0.186, S -0.448, F -0.173, Y -0.339, C -0.028, M -0.082, L -0.112, R -1.06, G -0.157, P -0.647, K -1.11, W -0.236, A -0.308
I80: R -0.795, N -0.836, C -0.074, Q -0.894, G -0.408, H -0.623, T -0.142, D -1.32, Y -0.188, K -0.802, A -0.468, L -0.113, W -0.383, P -0.921, E -0.883, M -0.169, F -0.098, S -0.424, V 0.012
S75: N -0.023, A 0.04, L 0.034, T 0.023, I -0.116, C -0.011, M -0.081, P -0.005, H -0.047, D 0.033, Q 0.019, G 0.001, Y -0.116, E -0.029, K 0.005, R -0.011, F -0.037, V 0.011, W -0.04
